Measurements reported in patent US20260275317A1, “CHIMERIC ENDOLYSINS WITH ACTIVITY AGAINST STREPTOCOCCI AND STAPHYLOCOCCI” (UNIVERSITEIT GENT, priority 2023, published 2026).

Columns and labels:
[1] = system: S. uberis GCC ST-143 biofilm; assay: Biofilm eradication assay; type: cell-based, Streptococcus uberis; details: 1.5 μM, 2 h30, 37° C.
Description: Biofilms were grown by transferring mid-log phase bacteria (OD600=0.6) grown in brain heart infusion (BHI) (Oxoid, Belgium) containing 0.25% α-D-glucose (ThermoFisher Scientific, USA) to a nunclon delta-treated, U-shaped-bottom 96-well microplate (ThermoFisher Scientific, USA). This whole was incubated for 21-24 h in a box containing a wet tissue. Subsequently, media and planktonic cells were removed and 1.5 µM of chimeric endolysin was allowed to eradicate the biofilms during 2 h30 at 37° C. on a shaker at 120 rpm. […] Biomass was fixated with 100% ethanol (ThermoFisher Scientific, USA) and stained with crystal violet (0.1% crystal violet (Sigma-Aldrich, USA), 5% methanol and isopropanol (ThermoFisher Scientific, USA) in PBS. Triple washing with PBS by inverting the plate was executed before solubilizing the stained biomass in 30% acetic acid (Chem-Lab, Belgium). OD590 nm was measured using a CLARIOstar Plus plate reader (BMG Labtech, The Netherlands). Logarithmic reductions were determined by scraping biomass from the wells with a sterile tooth picker followed by resuspension in PBS, which was subsequently serially diluted and spotted on BHI-agar. CFU/mL were counted after overnight incubation at 37° C.

S. agalactiae = assay: Time killing assay (TKA), S. agalactiae; type: cell-based, Streptococcus agalactiae; details: 0.3 μM
Description: Concerning the time killing assay, an overnight bacterial culture was diluted 1:10 for S. uberis, S. agalactiae-& dysgalactiae or 1:100 for S. aureus in PBS or UHT-pasteurized whole cow's milk. […] Finally, these fractions were serially diluted 1:10 in PBS. 5 μL of each fraction was spotted on TSA or BHI-agar and incubated overnight at 37° C. The following day, colony forming units (CFU) were counted and converted to CFU/mL to calculate logarithmic reductions in comparison with the negative control. The relative scores were calculated by dividing the observed logarithmic reduction for each endolysin by the maximal reduction observed for that specific condition and strain. Next, this value was divided by the number of conditions and strains tested (i.e., 8=4 bacterial strains×2 conditions (PBS/UHT-milk)). As such, the best performing candidate in each individual assay received a score of 0.125 (=(1/1)/8). […] Turbidity reduction assays were performed by combining 100 μL of overnight grown bacterial cells with an equal volume of purified enzyme at the desired concentration. Bacterial cells were washed with PBS and resuspended in a 1:1 ratio with enzyme to an OD600 of approximately 1.0. Next, the OD600 was measured using a Tecan infinite 200 PRO plate reader (Tecan, Switzerland) every 15 seconds at 37° C., shaking the 96-well plate between each measurement.
(§1) Time killing and turbidity reduction assays were performed as previously described in 1.3.1.
Time killing assays were performed as previously described in 1.3.1.

[2] = system: stationary phase S. uberis; assay: Turbidity reduction assay (TRA), S. uberis; type: cell-based, Streptococcus uberis
Description: Concerning the time killing assay, an overnight bacterial culture was diluted 1:10 for S. uberis, S. agalactiae-& dysgalactiae or 1:100 for S. aureus in PBS or UHT-pasteurized whole cow's milk. A volume of 10 μL thereof was combined with an equal amount of chimeric endolysin in PBS (or only PBS as negative control) in triplicate and incubated in a covered 96-well microtiter plate at 37° C. for 2 h. The dose was low (i.e. 0.25 μM), but this was chosen to differentiate between less and better performing variants, consequently allowing a ranking. Finally, these fractions were serially diluted 1:10 in PBS. 5 μL of each fraction was spotted on TSA or BHI-agar and incubated overnight at 37° C. The following day, colony forming units (CFU) were counted and converted to CFU/mL to calculate logarithmic reductions in comparison with the negative control. The relative scores were calculated by dividing the observed logarithmic reduction for each endolysin by the maximal reduction observed for that specific condition and strain. Next, this value was divided by the number of conditions and strains tested (i.e., 8=4 bacterial strains×2 conditions (PBS/UHT-milk)). As such, the best performing candidate in each individual assay received a score of 0.125 (=(1/1)/8). […] Turbidity reduction assays were performed by combining 100 μL of overnight grown bacterial cells with an equal volume of purified enzyme at the desired concentration. Bacterial cells were washed with PBS and resuspended in a 1:1 ratio with enzyme to an OD600 of approximately 1.0. Next, the OD600 was measured using a Tecan infinite 200 PRO plate reader (Tecan, Switzerland) every 15 seconds at 37° C., shaking the 96-well plate between each measurement.
as §1

B1: NC5: chimeric endolysin SEQ ID NO: 17; HIV-1 TAT + PlySs2 CHAP + Ply1081 CW_7 + PlySs9 amidase_3 (protein)
chain: MYGRKKRRQRRRGATTVNEALNNVRAQVGSGVSVGNGECYALASWYERMISPDATVGLGAGVGWVSGAIGDTISAKNIGSSYNWQANGWTVSTSGPFKAGQIVTLGATPGNPYGHVVIVEAVDGDRLTILEQNYGGKRYPVRNYYSAASYRQQVVHYITPPGTVAQSAPNLAGAGIDQLVQETLAGKYGNGEQRKAALGSQYQAVMAVINGKATAPKKTVDQLAQEVIQGKHGNGEDRKKSLGPDYDAVQKRVTEILKGSPSGNIPKTPSDAPKSEVVNSSTEPKTEETGANGKATDTKITKGSGKHLVICGHGQGRTGYDPGAVNAKLGITEAGKVRELSKLMSKYSGQQIDFITEQNVYDYRSITSIGKGYDSITELHFNAFNGSAKGTEVLIQSSLEADKEDMAILSLLSRYFQNRGIKKVDWLYNANQAASRGYTYRLVEIAFIDNEQDMAIFENKKEDIAKGLVSAITGVEVKTIVPSPPSSTVGSSGTPSKSIYLVGDSLRVLPHATHYQTGQKIANWVKGRTYKILQVKNVHQSNSKRAYLLDGIKSWVLEQDVEGTTKGHSKYHHHHHH
Question: With B1 as the molecule, how does the “reduction of biofilm mass (crystal violet)” value [1] read?
Answer: significant (p<0.001) reduction of the biofilm mass

Question: What about the “Δ Log10 reduction of biofilm CFU” value [1] of the same molecule?
Answer: 1.17±0.39 Log10

Question: What about the “ΔLog10 (CFU/mL)” value (S. agalactiae; S. agalactiae 1, 1 h) of the same molecule?
Answer: 1.49 Log10 (CFU/mL)

Question: And the “ΔLog10 (CFU/mL)” value (S. agalactiae; S. agalactiae 2, 1 h)?
Answer: 1.50 Log10 (CFU/mL)

Question: And the “ΔLog10 (CFU/mL)” value (S. agalactiae; S. agalactiae 3, 1 h)?
Answer: 0.00 Log10 (CFU/mL)

Question: And the log10 reduction (S. agalactiae; mastitis-derived S. agalactiae, versus PBS)?
Answer: 1.50±0.12 log10

Question: What about the “Δ log10, reductions up to” value (S. agalactiae; three clinical S. agalactiae isolates) of the same molecule?
Answer: ≤ 1.50±0.02 log10

Question: What about the “lysis in comparative TRA versus NC3 and NC8” value ([2]; 0.5 μM, S. uberis 0140J) of the same molecule?
Answer: lysed the bacterial cells faster and resulted in a higher reduction of the OD600

Question: What about the “lysis speed (ΔOD600/min)/μM” value ([2]; Clinical S. uberis 1 (Unknown ST and GCC), 0.3 μM) of the same molecule?
Answer: 0.06 (ΔOD600/min)/μM

Question: And the ΔOD600 ([2]; Clinical S. uberis 1 (Unknown ST and GCC), 1 h, 0.3 μM)?
Answer: 0.42

Question: And the “lysis speed (ΔOD600/min)/μM” value ([2]; Clinical S. uberis 2 (Unknown ST, GCC 5), 0.3 μM)?
Answer: 0.11 (ΔOD600/min)/μM

Question: What about the ΔOD600 ([2]; Clinical S. uberis 2 (Unknown ST, GCC 5), 1 h, 0.3 μM) of the same molecule?
Answer: 0.38

Question: And the “lysis speed (ΔOD600/min)/μM” value ([2]; Clinical S. uberis 3 (Unknown ST, GCC 5), 0.3 μM)?
Answer: 0.44 (ΔOD600/min)/μM

Question: What about the ΔOD600 ([2]; Clinical S. uberis 3 (Unknown ST, GCC 5), 1 h, 0.3 μM) of the same molecule?
Answer: 0.62

Question: What about the “lysis speed (ΔOD600/min)/μM” value ([2]; Clinical S. uberis 4 (ST 815, GCC 143), 0.3 μM) of the same molecule?
Answer: 0.05 (ΔOD600/min)/μM

Question: And the ΔOD600 ([2]; Clinical S. uberis 4 (ST 815, GCC 143), 1 h, 0.3 μM)?
Answer: 0.63

Question: What about the “lysis speed (ΔOD600/min)/μM” value ([2]; Clinical S. uberis 5 (ST 944, GCC 5), 0.3 μM) of the same molecule?
Answer: 0.21 (ΔOD600/min)/μM

Question: And the ΔOD600 ([2]; Clinical S. uberis 5 (ST 944, GCC 5), 1 h, 0.3 μM)?
Answer: 0.59

Question: What about the ΔOD600 ([2]; S. uberis 0140J, 0.3 μM) of the same molecule?
Answer: 0.57±0.00

Question: What about the “lysis speed (ΔOD600/min)/μM, NC5 pairwise versus NC2” value ([2]; S. uberis (sub)clinical isolates, 0.3 μM) of the same molecule?
Answer: significantly (p <0.01) faster

Question: What about the “lysis speed (ΔOD600/min)/μM” value ([2]; Subclinical S. uberis 1 (ST 808, GCC 143), 0.3 μM) of the same molecule?
Answer: 0.43 (ΔOD600/min)/μM

Question: And the ΔOD600 ([2]; Subclinical S. uberis 1 (ST 808, GCC 143), 1 h, 0.3 μM)?
Answer: 0.66

Question: And the “lysis speed (ΔOD600/min)/μM” value ([2]; Subclinical S. uberis 2 (Unknown ST and GCC), 0.3 μM)?
Answer: 0.11 (ΔOD600/min)/μM

Question: And the ΔOD600 ([2]; Subclinical S. uberis 2 (Unknown ST and GCC), 1 h, 0.3 μM)?
Answer: 0.65

Question: And the “lysis speed (ΔOD600/min)/μM” value ([2]; Subclinical S. uberis 3 (Unknown ST, GCC 5), 0.3 μM)?
Answer: 0.39 (ΔOD600/min)/μM

Question: And the ΔOD600 ([2]; Subclinical S. uberis 3 (Unknown ST, GCC 5), 1 h, 0.3 μM)?
Answer: 0.53

Question: What about the “lysis speed (ΔOD600/min)/μM” value ([2]; Subclinical S. uberis 4 (Unknown ST and GCC), 0.3 μM) of the same molecule?
Answer: 0.28 (ΔOD600/min)/μM

Question: And the ΔOD600 ([2]; Subclinical S. uberis 4 (Unknown ST and GCC), 1 h, 0.3 μM)?
Answer: 0.42
